# Measurements as given in patent US20230183352A1 (published 2023).
# Numbering of substitutions follows the chain as printed.
# B1: QP14501448 (antibody, V domains shown)
# VH: EVQLVESGGGLVQPGGSLRLSCAASGFTFSSFGMHWVRQAPGKGLEWVAYISSGSNSIYYVDTVKGRFTISRDNAKNSLYLQMNSLRDEDTAVYYCARNAYYGNSFDYWGQGTLVTVSS
# VL: DIVMTQSPDSLAVSLGERATISCKSSQSLLNSGNQKNYLTWYQQKPGQPPKLLIYWASTRESGVPDRFTGSGSGTVFTLTISSLQAEDVAVYFCQNNYYYPLTFGGGTKVEIKR
# B2: QP14491448 (antibody, V domains shown)
# VH: B1 VH with A49S
# VL: B1 VL
# B3: QP14501446 (antibody, V domains shown)
# VH: B1 VH
# VL: B1 VL with S22N, T69S, V76D, F93Y
# B4: QP14511446 (antibody, V domains shown)
# VH: B1 VH with D88S
# VL: DIVMTQSPDSLAVSLGERATINCKSSQSLLNSGNQKNYLTWYQQKPGQPPKLLIYWASTRESGVPDRFSGSGSGTDFTLTISSLQAEDVAVYYCQNNYYYPLTFGGGTKVEIK
# B5: QP14651462 (antibody, V domains shown)
# VH: EVQLVQSGAEVKKPGASVKVSCKASGYTFTSYIMHWVRQAPGQGLEWIGYINPYNDGTKYNEKFKGRVTLTSDKSTSTVYMELSSLRSEDTAVYYCARLGFTTRNAMDYWGQGTLVTVSS
# VL: B4 VL with T40A, W56G, S69T, L84V, N97D, Y98H, Y99S, L102F, G106Q, V110L
# B6: QP14651461 (antibody, V domains shown)
# VH: B5 VH
# VL: B4 VL with T40A, W56G, S69T, N97D, Y98H, Y99S, L102F, G106Q, V110L
# B7: QP14491446 (antibody, V domains shown)
# VH: B1 VH with A49S
# VL: B4 VL
# B8: QP14501447 (antibody, V domains shown)
# VH: B1 VH
# VL: B4 VL with N22S, Y93F
# B9: QP14661460 (antibody, V domains shown)
# VH: B5 VH with R38K, R67K, V68A, Y95C
# VL: B4 VL with T40A, W56G, N97D, Y98H, Y99S, L102F, G106Q, V110L
# B10: QP199200 (antibody, V domains shown)
# VH: DVQLVESGGGLVQPGGSRKLSCAASGFTFSSFGMHWVRQAPEKGLEWVAYISSGSNSIYYVDTVKGRFTISRDNPKNTLFLQMTSLKSEDTAMYYCARNAYYGNSFDYWGQGTTLTVSS
# VL: DIVMTQSPSSLTVTAGEKVTMSCKSSQSLLNSGNQKNYLTWYQQKPGQPPKLLIYWASTRESGVPDRFTGSGSGTVFTLTISSVQAEDLAVYFCQNNYYYPLTFGAGTKLELK
# B11: QP14561454 (antibody, V domains shown)
# VH: QVQLVQSGAEVKKPGASVKVSCKASGYTFTNYFVHWVRQAPGQGLEWMGYINPYNDDTKYNEKFKGRVTMTRDTSTSTVYMELSSLRSEDTAVYYCLSLRFFAYWGQGTLVTVSS
# VL: B1 VL with P49A, T69S, V76D, L84V, N97D, Y99S
# B12: QP14581453 (antibody, V domains shown)
# VH: B11 VH with R38K, M48I, R67K, V68A, M70L
# VL: B1 VL with P49A, T69S, V76D, F93Y, N97D, Y99S
# B13: QP14581454 (antibody, V domains shown)
# VH: B11 VH with R38K, M48I, R67K, V68A, M70L
# VL: B1 VL with P49A, T69S, V76D, L84V, N97D, Y99S
# B14: QP14431442 (antibody, V domains shown)
# VH: QVQLVQSGAEVKKPGASVKVSCKASGYAFSSYWMNWVRQAPGQGLEWMGQIYPGNGDTTYNGKFKGRVTMTRDTSTSTVYMELSSLRSEDTAVYYCARFVKGNAMDYWGQGTLVTVSS
# VL: B4 VL with N22S, L52M, T75I, L84V, N97A, Y99S, L102F, G106Q, V110L
# B15: QP14441439 (antibody, V domains shown)
# VH: B14 VH with M48I, R72A, T74K
# VL: B4 VL with N97A, Y99S, L102F, G106Q, V110L
# B16: QP14571452 (antibody, V domains shown)
# VH: B11 VH with M48I, M70L
# VL: B4 VL with N97D, Y99S
# B17: QP14571454 (antibody, V domains shown)
# VH: B11 VH with M48I, M70L
# VL: B4 VL with N22S, P49A, L84V, Y93F, N97D, Y99S
# B18: QP14441440 (antibody, V domains shown)
# VH: B14 VH with M48I, R72A, T74K
# VL: B4 VL with N22S, N97A, Y99S, L102F, G106Q, V110L
# B19: QP14561453 (antibody, V domains shown)
# VH: B11 VH
# VL: B4 VL with N22S, P49A, N97D, Y99S
# B20: QP14441442 (antibody, V domains shown)
# VH: B14 VH with M48I, R72A, T74K
# VL: B4 VL with N22S, L52M, T75I, L84V, N97A, Y99S, L102F, G106Q, V110L
# B21: QP14431441 (antibody, V domains shown)
# VH: B14 VH
# VL: B4 VL with N22S, T75I, L84V, N97A, Y99S, L102F, G106Q, V110L
# B22: QP14581452 (antibody, V domains shown)
# VH: B11 VH with R38K, M48I, R67K, V68A, M70L
# VL: B4 VL with N97D, Y99S
# B23: QP14451441 (antibody, V domains shown)
# VH: B14 VH with M48I, R72A, T74K, Y95F
# VL: B4 VL with N22S, T75I, L84V, N97A, Y99S, L102F, G106Q, V110L
# B24: QP14571453 (antibody, V domains shown)
# VH: B11 VH with M48I, M70L
# VL: B4 VL with N22S, P49A, N97D, Y99S
# B25: QP14561452 (antibody, V domains shown)
# VH: B11 VH
# VL: B4 VL with N97D, Y99S
# B26: QP14571455 (antibody, V domains shown)
# VH: B11 VH with M48I, M70L
# VL: B4 VL with N22S, P49A, S69I, L84V, Y93F, N97D, Y99S
# B27: QP14561455 (antibody, V domains shown)
# VH: B11 VH
# VL: B4 VL with N22S, P49A, S69I, L84V, Y93F, N97D, Y99S
# B28: QP201202 (antibody, V domains shown)
# VH: EVQLQQSGPELVKPGASVKMSCKASGYTFTNYFVHWVKQKPGQGLEWIGYINPYNDDTKYNEKFKGKATLTSDKSSSTAYMDLSSLTSEDSAVYYCLSLRFFAYWGQGTLVTVSA
# VL: B10 VL with P49A, T69I, V76D, S83H, N97D, Y99S, K109N
# Target: T1, Claudin 18.2 (CLDN18.2), expressed on CHOS-CLDN 18.2 / HEK293-CLDN 18.2 / HCC827-CLDN 18.2 cells (human, UniProt P56856 1-261)
# Assay: cell ELISA
row,EC50,Binder
1,0.115 µg/mL,B1
2,0.12 µg/mL,B2
3,0.109 µg/mL,B3
4,0.133 µg/mL,B4
5,0.119 µg/mL,B5
6,0.301 µg/mL,B6
7,0.158 µg/mL,B7
8,0.0926 µg/mL,B8
9,0.105 µg/mL,B9
10,0.243 µg/mL,B10

# Target: T1, Claudin 18.2 (CLDN18.2), expressed on …
# Assay: cell ELISA
# Remark: another data set of the same source
row,EC50,Binder
1,0.213 µg/mL,B11
2,0.187 µg/mL,B12
3,0.21 µg/mL,B13
4,0.132 µg/mL,B14
5,0.109 µg/mL,B15
6,0.242 µg/mL,B16
7,0.357 µg/mL,B17
8,0.086 µg/mL,B18
9,0.357 µg/mL,B19
10,0.243 µg/mL,B20
11,0.159 µg/mL,B21
12,0.279 µg/mL,B22
13,0.134 µg/mL,B23
14,0.796 µg/mL,B24
15,0.389 µg/mL,B25
16,0.265 µg/mL,B26
17,0.246 µg/mL,B27
18,0.944 µg/mL,B28
